From publication PMC4725248, “Yeast mitochondrial HMG proteins”

What was measured:
[1] = molecular target: T1, CpGcf1p (CpGcf1noMP) (Candida parapsilosis CBS604) (UniProt G8BDQ3); test: EMSA; conditions: EMSA: 20 mM Tris/HCl pH 7.5, 1 mM EDTA, 50 mM NaCl, 100 ug/ml BSA, 3 nM DNA, 10 min 30 C, gel 0.5x TBE 4 C, EM: 20 mM HEPES pH 7.5, 1 mM EDTA, room …
T1 sequence: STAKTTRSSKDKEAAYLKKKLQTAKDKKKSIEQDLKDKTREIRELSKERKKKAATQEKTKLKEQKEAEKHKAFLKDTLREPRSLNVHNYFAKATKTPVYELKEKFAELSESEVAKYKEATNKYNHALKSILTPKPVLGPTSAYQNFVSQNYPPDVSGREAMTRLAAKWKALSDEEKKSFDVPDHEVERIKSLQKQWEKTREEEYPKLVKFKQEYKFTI

[2] = molecular target: T2, ScAbf2p (ScAbf2noMP) (Saccharomyces cerevisiae) (UniProt Q02486); test: EMSA; conditions: EMSA: 20 mM Tris/HCl pH 7.5, 1 mM EDTA, 50 mM NaCl, 100 ug/ml BSA, 3 nM DNA, 10 min 30 C, gel 0.5x TBE 4 C, EM: 20 mM HEPES pH 7.5, 1 mM EDTA, room …
T2 sequence: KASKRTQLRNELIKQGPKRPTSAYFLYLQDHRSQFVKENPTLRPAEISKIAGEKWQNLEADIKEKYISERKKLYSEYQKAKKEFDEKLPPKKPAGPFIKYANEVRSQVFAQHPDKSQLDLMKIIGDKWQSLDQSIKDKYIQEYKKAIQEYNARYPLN

CpGcf1p (CpGcf1noMP) [3] = molecular target: T3, CpGcf1p (CpGcf1noMP) (Candida parapsilosis CBS604, UniProt G8BDQ3 34-251); test: EMSA; conditions: 120 nM protein, EMSA: 20 mM Tris/HCl pH 7.5, 1 mM EDTA, 50 mM NaCl, 100 ug/ml BSA, 3 nM DNA, 10 min 30 C, gel 0.5x TBE 4 C, EM: 20 mM HEPES pH 7.5, 1 mM EDTA, room …
T3 sequence: T1 sequence

ScAbf2p (ScAbf2noMP) [4] = molecular target: T4, ScAbf2p (ScAbf2noMP) (Saccharomyces cerevisiae, UniProt Q02486 27-183); test: EMSA; conditions: 50% shift, 3 nM probe, EMSA: 20 mM Tris/HCl pH 7.5, 1 mM EDTA, 50 mM NaCl, 100 ug/ml BSA, 3 nM DNA, 10 min 30 C, gel 0.5x TBE 4 C, EM: 20 mM HEPES pH 7.5, 1 mM EDTA, room …
T4 sequence: T2 sequence

[5] = system: YlMhb1p (YlMhb1noMP) (Yarrowia lipolytica); test: EMSA; conditions: 50% shift, 3 nM probe, EMSA: 20 mM Tris/HCl pH 7.5, 1 mM EDTA, 50 mM NaCl, 100 ug/ml BSA, 3 nM DNA, 10 min 30 C, gel 0.5x TBE 4 C, EM: 20 mM HEPES pH 7.5, 1 mM EDTA, room …
CpGcf1p (CpGcf1noMP) [6] = molecular target: T3, CpGcf1p (CpGcf1noMP); test: EMSA; EMSA: 20 mM Tris/HCl pH 7.5, 1 mM EDTA, 50 mM NaCl, 100 ug/ml BSA, 3 nM DNA, 10 min 30 C, gel 0.5x TBE 4 C; EM: 20 mM HEPES pH 7.5, 1 mM EDTA, 50 mM NaCl, room; conditions: protein: recombinant, tags: GST removed with PreScission protease (pGEX-6P-2), label: 32P, blunt
ScAbf2p (ScAbf2noMP) [7] = molecular target: T4, ScAbf2p (ScAbf2noMP); test: EMSA; almost quantitative shift; EMSA: 20 mM Tris/HCl pH 7.5, 1 mM EDTA, 50 mM NaCl, 100 ug/ml BSA, 3 nM DNA, 10 min 30 C, gel 0.5x TBE 4 C; EM: 20 mM HEPES pH 7.5, 1 mM EDTA, 50 mM NaCl, room; conditions: protein: recombinant; tags: GST removed with PreScission protease (pGEX-6P-2); label: 32P, 5' end of S8; blunt
ScAbf2p (ScAbf2noMP) [8] = molecular target: T4, ScAbf2p (ScAbf2noMP); test: EMSA; EMSA: 20 mM Tris/HCl pH 7.5, 1 mM EDTA, 50 mM NaCl, 100 ug/ml BSA, 3 nM DNA, 10 min 30 C, gel 0.5x TBE 4 C; EM: 20 mM HEPES pH 7.5, 1 mM EDTA, 50 mM NaCl, room; conditions: protein: recombinant; tags: GST removed with PreScission protease (pGEX-6P-2); label: 32P, 5' end of S6; blunt

ACACCATTAATTAAAGCTGCGAATACGATAGCAATACCAATACCTGCTCC (double strand) [50 bp atp9 dsDNA]
binding [1]: binds
binding [2]: binds

Holliday junction (HJ)
binding signal (fold higher than 3' Flap) (CpGcf1p (CpGcf1noMP) [3]): 8

fluorescent dsDNA
K half (ScAbf2p (ScAbf2noMP) [4]): 30 nM
K half [5]: 120 nM

B1: 25 bp atp9 dsDNA (dsDNA)
DNA 1: GGAGCAGGTATTGGTATTGCTATCG
DNA 2: CGATAGCAATACCAATACCTGCTCC
binding result (CpGcf1p (CpGcf1noMP) [6]; 5' end of S8): no binding
binding result (ScAbf2p (ScAbf2noMP) [7]): binds

B2: 15 bp atp9 dsDNA (dsDNA)
DNA 1: GGAGCAGGTATTGGT
DNA 2: ACCAATACCTGCTCC
binding result (ScAbf2p (ScAbf2noMP) [8]): no binding
binding result (CpGcf1p (CpGcf1noMP) [6]; 5' end of S6): no binding
